The series in a line: yeast display, Sf9 membrane polyspecificity reagent, FACS + sequencing; frameworks hold sequencing errors. The method in brief: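 Nanobodies from a synthetic yeast display library (Saccharomyces cerevisiae BJ5465), induced 36–48 hours with galactose, were stained 1 hour at 4 °C with 10% biotinylated, detergent-solubilized Sf9 membrane reagent, enriched on streptavidin microbeads, then FACS-sorted. Anti-HA (expression) and streptavidin (reagent binding) fluorescence set low and high (top ~1%) gates. Polyreactivity labels come from the gate of origin. Genes were colony-PCR amplified, MiSeq 2 × 250 sequenced and filtered by CDR length.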
For the sequence “HVQIVESGGGLVQAGGSLRLSCAASGRIFVPYVMGWYRQAPGKERELVASISDSDTSTYYADSVKGRFTISRDNAKNTVYLQINSLKPEDTAVYYCNVDNWGQGTQVTVSS”, the “polyreactivity (PSR sort gate)” value is given as “low polyreactivity”. In the case of “QVQLVESGGGLVQAGGSLRLSCAASGRILKRNAMGWYRQAPGKERELVAAISWSTGTTYYADSVKGRFTISRDNAKNTVYLQMNSLKPEDTAVYYCAKQIVSGRRVDRNDYWGQGTQVTVSS”, the “polyreactivity (PSR sort gate)” value was “low polyreactivity”. Consider “QVQLVESGGGIVQAGGSLRLSCAASGIIFKYYAMGWYRQAPGKERELVAAISRIGGSTHYADSVKGRFTISRDNAKYTVYLQMNSLKPEDTAVSYCAARVLGRPLYFIYDYWGQGTQVTVSS”, for which the “polyreactivity (PSR sort gate)” value was “high polyreactivity”. The same measure for “QVQLVESGGGLVQAGGSLRLSCAASGSTFAYYVMGWYRQAPGKERELVAAITSSGGRTYYADSVKGRFTISRDNAKNTVYLQMNSLKPEDTAVYYWAKVSQRRVDNSDYDYWGQGTQVTVSS”: “high polyreactivity”; for “QVQLVESGGGLVQAGGSHRLSFAASGGIFRGYALGWNRQAPGKERELGATIRSSGRTNYADSVKGRFTIARDNAKNTVYLQMNCLKPDDTAVYYCNKRRWWQYDRWSDWVLGGDDYWGQGTQLTVSS”: “low polyreactivity”; for “QVQLVETGGGIVQAGGSLRLSCAASGSTFDGYVMGWYRQEPGKERELVAAISGSGGSTYYADSVKGRFTISRDNAKNTVYFELYSLKPEDTSVYYCAADSWWYDDYSEGDYWGQGTQVTVSS”: “low polyreactivity”. On to “QVQLVESGGGCVQAGGSLRLSCAASGFIFEQNAKGWYRQARGKEWELVARISWRGGSTYYADSEKGRFTISRDKAKITVYLQMNSLKPEDSAVYYCNAHEVDYFGYYPSDYWGQGTQVTVSS”, for which the “polyreactivity (PSR sort gate)” value is “low polyreactivity”. With “QVQRVESGGGLVQAGGSLSLSCAASGRTCGVYAMGWYRQAPGKERELGASSSRSAGSTYYADSVKGRFTISRDNAKNTVYFQMNSLKTEDTAVYYCAAVYKRGMDYWGQGTQVTVSS”, the “polyreactivity (PSR sort gate)” value is “high polyreactivity”.

“QVQLVESGGGLVQAGGSLRLSCAASGSTFYAYAMGWYRQAPGKEWELVAAITYSGGTPYYADSVKGRFTISRDNAKNTVYLQMNSLKPEDTAVYYCAARYRGLTGHIDGYWGQGTQVTVSS”: the “polyreactivity (PSR sort gate)” value is “low polyreactivity”. Regarding “QVQLQESGGGLVQAGGSLRLSCAASGNISVTGFMGWYRQAPVKERELVASIGIGGTTYYADSVKGRFSISRDNAKNTVYLQMNSLKPEDTAVYYCAARYLYYAYSYWGQGSQVTVSS”, the “polyreactivity (PSR sort gate)” value is “low polyreactivity”. With “QVQLVESGGGLVQAGGSLSLICAASGNTFPPYAMGWYRQAPGKERELVAAISCGGRTYYADSVKGRFTISRDNAKNTVYLQMNSLTPEDTAVYYCAVYVPNYYSYHYDYWGQGTQVTVSS”, the “polyreactivity (PSR sort gate)” value is reported as “high polyreactivity”. The same measure for “QVQLVESGGGLVQAGGSLRLSCAASGFIFYQYAKGWYRQAPGKERELVATISFRGGRTYYADSVKGRFTITRDTAKNTVYLQMNSLKPDETAVYYCNAKRVSSRFYKWDYYWGQGTQVTVSS”: “high polyreactivity”. On to “QVQLVESGGGLVQAGGSLSLSCAASGSNFKAYAMGWYRQAPGKERELVAAITKSGGRTYYADSVKGRFTISRDNAKNTVYLQMKSLNPEDTAVYSCAAVFRPDSSAYRYYYWGQGTQVTVST”, for which the “polyreactivity (PSR sort gate)” value is listed as “high polyreactivity”. The same measure for “QVQLVESGGGLVQAVGSLRLSCAASGLTFYSNAMGWYRQAPGTERELVATISQDGGRTYADSVKGLFTISRDNAKNTVYFQMNSLKPEDTAVYYCAADYSGNYDFGYWGQGNQVTVSS”: “low polyreactivity”; for “QVQLVESGGGLVQEGGSLRLSCAASGRTLYRNAMGWYRQAPGKERELVAAISRSGGRTSYADSVKGRFTISRDNANNTVYLQMNSLIPEDTAVYYCNDVASHEFDYWGEGTQVTVSS”: “high polyreactivity”; for “QVQLVESGGGLVQAGGSLRLSCAASGSIFYGNAMGWYRQAPGKERELVAAISARGGSTNYADSVKGRFTISRDNAKNTVYLQMNSLKPEDTAVYYCAADTPVWSGYWYDYWGQGTQVTVSS”: “low polyreactivity”. In the case of “QVQLVESGGGLVQAGGSLRVSCAASGFIFGDYAMGWYRQAPGKERELVAAINRGASTYYADSVKGRFTISRDNAKNTVYLQMNSLKPEDTAVYYCAAAGYSRGGRGGYWGQGTHVTVSS”, the “polyreactivity (PSR sort gate)” value is reported as “high polyreactivity”. The same measure for “QVQLVESGGGLVQAGGSLRLSCADSGRTFSSYAMGWYRQAPGKERELVARISSSGGRTSYADSVKGRFTISRDNAKNTVYLQMNSLKPEDTAVYYCAKTYHWLYDYWGQGTQVTVSS”: “high polyreactivity”; for “QVQLVESGGGLVQAGGSLRLSCAASGRTFGPYAMGWYRQAPGKERELVAAITCSGGSTYYADSVKGRFTISRYNAKNTVYLQMNSLKPEDTAVYYCAPYHLSKLDYWGQGTQVTVSS”: “low polyreactivity”. For the sequence “QVQLVESGGGLVQAGGSLRLSCAASGSTFVRNAMGWYRQAPGKERELVAAISTRGGSTSYADSVKGRFTISRDNAKNTVYLQMNCLKPEDTAVYYCAKVHAYSQGIRHGYWGQGTQVTVSS”, the “polyreactivity (PSR sort gate)” value was “low polyreactivity”. With “QVQLVESGGGLVQAGGSLSLSCAASGLIFYYYAMGWYRQAPGKERELVAAISGSGGSTYYADSVKGRFTISRDNAKNTVYLQMNSLKPEDTAVYYCAAESQYTYGYGYWGQGTQVTVSS”, the “polyreactivity (PSR sort gate)” value was “high polyreactivity”. “QVQLVESGGRLVQAGGSLRLSCAASGRIILRNAMGWYRQAPGKERELVAAISSSGGRKYYADSVKGRFTISRDNAKNTVYLQMNSLKPEDTAVYYCNARWHGSFDYWGQGTQVTVSS”: the “polyreactivity (PSR sort gate)” value is on record as “low polyreactivity”.

On to “QVQLVESGGGLVQAGGSLRLSCAASGRTFGANAMGWYRQAPGKERELVAAISSSDDSTYYADSVKGRFTISRDNAKKTDDLQMNSLKPEDTAVYYCAVAVGYTDSPYSYDYWGQGTQVTVSS”, for which the “polyreactivity (PSR sort gate)” value is reported as “low polyreactivity”. For “QVQLVESGGGLVQAGGSLRLSCAASGFSFSDYPMGWYRQAPGKERELVAAISGSGGSTYYADSVKGRFTISRDTAKNSVYLQMNSLKPEDTSVYYCNKGYARRYASGYDYWGQGTQVTVSS”, the “polyreactivity (PSR sort gate)” value is given as “high polyreactivity”.

In the case of “QVQLVESGGGLVQAGGSLRLSCAASGSTFYAYAMGWYRQAPGTERELVAAITTIGGRTYYADSVKGRFTISRDNAKNTVYLQMNSLKPEDTAVYYCAADIRSNRLYDGGYWGQGTQVTVSS”, the “polyreactivity (PSR sort gate)” value is listed as “low polyreactivity”.

Take “QVQLQESGCGLVQAGGCLSCTASGTIFGQGDMGWYRQAPGKERELVATINDGASTYYADSVKGRFTISRDKAKNTVYLQMNSLKPEDTAVYYCAAVIRPRYYQVRPRYDYWGQGTQVTVSS”: the “polyreactivity (PSR sort gate)” value is on record as “low polyreactivity”. Take “QVQLVETGGGLVQAGGSLRLSCAASGRTIGFYAMGWYRQAPGKERELVAAINRSGDSTYYADSVKGRFTISRDNAKNTVYLHMNSLKPEDTAVYYCAARRSTGYGYWGQGTQVTVSS”: the “polyreactivity (PSR sort gate)” value is given as “high polyreactivity”. For the sequence “QVQLVESGGGLVQAGGSLRLSCAASGSTFEDYTLGGYRQATGKERELVAAINWDGSRTYYADSVKGRFTISRDNAKNTVYLQMNSLKPEDTAVYDCAAHSAYHRRRMYYWGQGTQVTVSS”, the “polyreactivity (PSR sort gate)” value was “high polyreactivity”. In the case of “QVQLVESGGGLVQAGGSLRLSCAASGRIFSINTMGWYRQAPGKERELVAAISVSGGRTYYADSVKGRFTISRENAKKSVYVQMNSLKPEVTAGYYCGAYGTTRMDYWGQGTQVTVSS” it was “high polyreactivity”; in that of “QVQLVESGGGLVQAGGSLRISCEAYGSIFGSYAMGWYRQEPGKERELVAGITYRGSSTYYADSVKGRYTISRDNAKNTVYLQMNSLKPEDTAVYYCAADPVFDEYDYWGQGTQVTVSW”, “low polyreactivity”.

Regarding “QVQLVESGGGLVQAGGSLRLSCAASGSIFKYYTMGWYRQAPGKERELVSGISYRGGSTYYADSVKGRFTISRDNAKNTVYLQMNSLKPEDTAVYYCATGSGFSPRRNTFRYGYWGQGTQVTVSS”, the “polyreactivity (PSR sort gate)” value is listed as “high polyreactivity”. With “QVQLVESGGGLVHAGGSLRLSCAASGSTFRLYSMGWYRQAPGKERELVAAISSNGVRTYYADSVKGRFTISRDNAKNTVYLQMNSLKPEDTAVYYCAARVYPAYPRGYDYWGQGTQVTVSS”, the “polyreactivity (PSR sort gate)” value is reported as “high polyreactivity”. Take “QVQLEESGGGLVQAGGSLRLSCAASGNIFLIYAMGWYRQAPRKEVEMVAAISFSDDTTDYADSVKGRFTSSRDNAKNTVYLQLNSLKQEDTAVYFCAAELYYDVANTQYDYWGQGTQVTVSS”: the “polyreactivity (PSR sort gate)” value is recorded as “high polyreactivity”. In the case of “QVQLVESGGGLVQAGGSLRLSCAASGSTFVGYTMGWYRQAPGKERELVASITSDGSTNYADSVKGRFTISRDNAKNTVYLQMNSLKREDTAVYYCNADWSSLYVGEFDYWGQGTQVTVSS”, the “polyreactivity (PSR sort gate)” value was “low polyreactivity”.

As to “QFQLVESGGGLVQAGGSLRLSCPPSGSIFPGYAMGWSRQSPGKERELVATITWSGGSTYYADSVKGRFTISRDNAKNTVYLQLTSLKPEDTAVYYCNADTNWYYQLNYYGLYDYWGQGTQVTVSS”, the “polyreactivity (PSR sort gate)” value was “low polyreactivity”. In the case of “QVQLVESGGGLVQAGGSLRLSCASSGRTIGVYAMGWYRQAPGKERELVAAISWSGGTTYYADSVKGRFTISRDNAKNTVYLQMNSLKPEDTAVYYCAADSYTEVDYWGQGTQVTVSS”, the “polyreactivity (PSR sort gate)” value was “low polyreactivity”.

Consider “QVQLVESGGGLFQAGGSLRLSCAASGFIFARNAMSWYRQAPGKERELVAAISRNGGRTSYADSVKGRFTISRDNAKNTVYLQMNSMKAEDTAVYYCAKSQGYVSWTGAYSYDYWGQGTQVTVSS”, for which the “polyreactivity (PSR sort gate)” value is “high polyreactivity”. “QVQLVESGGGLVHAGGSLRLSCAASGGTFGHYTMGWYRQAPGKERELVAAISGSGGTTYYADSVKGRFTISRDNAKNTVYLQMNSLKPEDTAVYYCAAYSGAYRKWLYDYWGQGTQVTVSS”: the “polyreactivity (PSR sort gate)” value is given as “high polyreactivity”. As for “QVQLVESGGGLVQAGGSLRLSCAASGFTFFTYAMGWYRQAPGNERELVAAISSSGDRTYYADSVKGRFTISRDNAKNTVYLQMNSLKPEDTAVYYCAVYKYYHFYYWGQGTQVTVSS”, the “polyreactivity (PSR sort gate)” value is “high polyreactivity”. For the sequence “QVQLQESGGGLVQAGGSLRLSCAASGNISVTGFMGWYRQAPGKERELVASIGIGGTTYYADSVKGRFSISRDNAKNTVYVQMNSLKPEDTAVYYCAARYLYYAYSYWGQGTQVTVRS”, the “polyreactivity (PSR sort gate)” value is on record as “low polyreactivity”.

Regarding “QVQLVESGGGLVQAGGSLRLSCAASGSIFYQNAMGWYRQAPGKERELVAAITSDGSTYYADSVKGRFTISRDNAKNTVYLQMNSLKPEDTAVYYCAAEYYGHRYDYWGQGTQVTVSS”, the “polyreactivity (PSR sort gate)” value is reported as “low polyreactivity”.
